These results are taken from patent US20220380800A1.

In test [1] the target is purified bovine cation-independent mannose 6-phosphate receptor (CI-MPR) (bovine) (UniProt P08169). Briefly: plate assay: conditioned medium on immobilized bovine CI-MPR, bound enzyme by 4-MU activity, linear range points.
For test [2] the target is unchanged. Put plainly: plate assay: conditioned medium on immobilized bovine CI-MPR, bound enzyme by 4-MU activity.

Sequence of UniProt P08169 (P08169 45-2313 limits assumed): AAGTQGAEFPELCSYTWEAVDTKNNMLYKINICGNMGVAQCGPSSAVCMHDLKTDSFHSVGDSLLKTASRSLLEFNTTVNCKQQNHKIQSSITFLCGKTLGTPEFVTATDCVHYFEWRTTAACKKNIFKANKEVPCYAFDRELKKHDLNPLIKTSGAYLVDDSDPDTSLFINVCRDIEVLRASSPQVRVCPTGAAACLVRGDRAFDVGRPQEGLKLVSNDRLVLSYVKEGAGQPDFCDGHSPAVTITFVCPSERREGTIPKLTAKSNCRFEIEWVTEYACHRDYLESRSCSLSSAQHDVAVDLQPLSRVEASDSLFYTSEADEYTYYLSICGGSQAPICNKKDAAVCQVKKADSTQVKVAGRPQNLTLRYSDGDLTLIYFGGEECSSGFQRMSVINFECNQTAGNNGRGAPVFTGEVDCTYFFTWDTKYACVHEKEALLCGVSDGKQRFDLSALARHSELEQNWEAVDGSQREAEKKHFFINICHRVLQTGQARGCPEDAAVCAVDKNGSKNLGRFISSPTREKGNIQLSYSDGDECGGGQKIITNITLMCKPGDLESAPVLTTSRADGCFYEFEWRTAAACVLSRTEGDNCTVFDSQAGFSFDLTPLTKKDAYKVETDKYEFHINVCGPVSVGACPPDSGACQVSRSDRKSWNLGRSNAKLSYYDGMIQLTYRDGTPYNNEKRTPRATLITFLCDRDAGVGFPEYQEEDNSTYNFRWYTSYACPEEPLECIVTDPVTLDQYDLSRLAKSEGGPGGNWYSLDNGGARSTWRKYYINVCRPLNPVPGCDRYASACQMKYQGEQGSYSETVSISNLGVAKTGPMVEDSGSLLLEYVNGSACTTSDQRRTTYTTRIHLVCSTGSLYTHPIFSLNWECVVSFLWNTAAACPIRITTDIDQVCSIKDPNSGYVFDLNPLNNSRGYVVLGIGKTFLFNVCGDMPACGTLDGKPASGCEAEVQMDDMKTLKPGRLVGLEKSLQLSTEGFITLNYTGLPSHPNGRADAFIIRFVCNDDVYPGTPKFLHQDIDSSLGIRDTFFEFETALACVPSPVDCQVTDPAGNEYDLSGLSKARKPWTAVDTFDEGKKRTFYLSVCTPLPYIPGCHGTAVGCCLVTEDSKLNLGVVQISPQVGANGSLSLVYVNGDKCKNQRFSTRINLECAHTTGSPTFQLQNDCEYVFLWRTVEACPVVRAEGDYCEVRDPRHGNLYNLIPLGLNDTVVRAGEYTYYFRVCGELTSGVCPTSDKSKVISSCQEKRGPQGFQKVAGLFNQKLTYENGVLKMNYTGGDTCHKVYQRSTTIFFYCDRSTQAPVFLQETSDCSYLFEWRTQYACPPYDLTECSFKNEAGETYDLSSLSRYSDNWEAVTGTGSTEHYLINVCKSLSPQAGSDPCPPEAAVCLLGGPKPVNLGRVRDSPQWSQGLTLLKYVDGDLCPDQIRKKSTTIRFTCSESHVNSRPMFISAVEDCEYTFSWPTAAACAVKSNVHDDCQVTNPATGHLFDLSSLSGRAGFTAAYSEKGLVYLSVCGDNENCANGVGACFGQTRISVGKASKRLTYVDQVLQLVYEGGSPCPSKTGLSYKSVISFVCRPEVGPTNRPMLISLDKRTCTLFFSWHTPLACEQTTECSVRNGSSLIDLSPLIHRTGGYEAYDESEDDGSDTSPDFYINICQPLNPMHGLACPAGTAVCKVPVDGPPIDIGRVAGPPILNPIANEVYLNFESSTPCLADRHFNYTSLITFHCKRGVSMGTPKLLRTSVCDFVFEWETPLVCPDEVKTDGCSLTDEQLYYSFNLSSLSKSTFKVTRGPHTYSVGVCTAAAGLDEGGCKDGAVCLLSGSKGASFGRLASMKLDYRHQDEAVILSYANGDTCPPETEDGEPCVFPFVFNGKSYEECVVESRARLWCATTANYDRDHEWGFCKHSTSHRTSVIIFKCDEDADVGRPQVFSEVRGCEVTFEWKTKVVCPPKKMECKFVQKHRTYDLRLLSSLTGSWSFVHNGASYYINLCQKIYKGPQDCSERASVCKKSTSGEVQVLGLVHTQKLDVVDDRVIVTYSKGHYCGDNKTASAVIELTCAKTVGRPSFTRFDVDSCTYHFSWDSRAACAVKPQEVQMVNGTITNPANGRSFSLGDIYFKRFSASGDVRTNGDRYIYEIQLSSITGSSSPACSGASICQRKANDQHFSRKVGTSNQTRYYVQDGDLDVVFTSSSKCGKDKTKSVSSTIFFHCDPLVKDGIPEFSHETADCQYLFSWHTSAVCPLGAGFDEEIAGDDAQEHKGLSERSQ

For the substance “human acid beta-glucosidase (GBA) produced by co-transfection of GBA plasmid and CMV-S1S3 plasmid in Expi293 cells (from UniProt P04062 40-536) (enzyme)”, in test [1], the percentage of receptor binding came out at 43%.
In turn, “human alpha-galactosidase (GLA) produced from GLA single plasmid in Expi293 cells (from UniProt P06280 32-429) (enzyme)” came in with an overall binding percentage in test [2] of 33.1%.
In test [1], “human acid beta-glucosidase (GBA) produced from GBA single expression plasmid in Expi293 cells (endogenous phosphotransferase) (from UniProt P04062 40-536) (enzyme)” had a percentage of receptor binding of 4.5%.
The substance “human acid beta-glucosidase (GBA) produced from bicistronic plasmid pLL11 (pCMV-hGBA-IRES-S1S3) in Expi293 cells (from UniProt P04062 40-536) (enzyme)” yielded a fold of percentage bound against GBA produced by endogenous phosphotransferase in test [2] of 10 fold. In test [1], the percentage of receptor binding was found to be 44%.
For “human alpha-galactosidase (GLA) produced from bicistronic plasmid pLL51 in Expi293 cells (from UniProt P06280 32-429) (enzyme)”, in test [2], the fold of binding percentage against GLA sample was 2 fold and the overall binding percentage was 62.1%.
